Substrate: CN(Cc1cnc2nc(N)nc(N)c2n1)c1ccc(C(=O)N[C@@H](CCC(=O)O)C(=O)O)cc1
Test: TP_TRANSPORTER: uptake (vesicle) in membrane vesicle from ABCG2-expressing HEK-293 cells
Type: functional, cell membranes, HEK293

B1: Broad substrate specificity ATP-binding cassette transporter ABCG2 (Homo sapiens) (protein)
chain: MSSSNVEVFIPVSQGNTNGFPATASNDLKAFTEGAVLSFHNICYRVKLKSGFLPCRKPVEKEILSNINGIMKPGLNAILGPTGGGKSSLLDVLAARKDPSGLSGDVLINGAPRPANFKCNSGYVVQDDVVMGTLTVRENLQFSAALRLATTMTNHEKNERINRVIQELGLDKVADSKVGTQFIRGVSGGERKRTSIGMELITDPSILFLDEPTTGLDSSTANAVLLLLKRMSKQGRTIIFSIHQPRYSIFKLFDSLTLLASGRLMFHGPAQEALGYFESAGYHCEAYNNPADFFLDIINGDSTAVALNREEDFKATEIIEPSKQDKPLIEKLAEIYVNSSFYKETKAELHQLSGGEKKKKITVFKEISYTTSFCHQLRWVSKRSFKNLLGNPQASIAQIIVTVVLGLVIGAIYFGLKNDSTGIQNRAGVLFFLTTNQCFSSVSAVELFVVEKKLFIHEYISGYYRVSSYFLGKLLSDLLPMRMLPSIIFTCIVYFMLGLKPKADAFFVMMFTLMMVAYSASSMALAIAAGQSVVSVATLLMTICFVFMMIFSGLLVNLTTIASWLSWLQYFSIPRYGFTALQHNEFLGQNFCPGLNATGNNPCNYATCTGEEYLVKQGIDLSPWGLWKNHVALACMIVIFLTIAYLKLLFLKKYS
Km: 5.7 mM
